# Target: mouse FXII^HC5 (mouse)
# Assay: native MS; buffer-exchanged into 1 M ammonium acetate pH 7.0, electrospray, Bruker maXis qTOF, native-favouring source conditions
substance,measurement,value
mouse FXII^HC5 (domain or fragment),stoichiometry N,2
